From patent publication US20130109846A1 (published 2013)

B1: 1h-112 (other)
VL: DIQMTQSPSSLSASVGDRVTITCRASQHINASLGWYQQKPGKAPRLLIYWASQLQSGVPSRFSGSGSGTDFTLTISSLQPEDFATYYCQQMVRTPFTFGQGTKVEIKR
B2: 1h-116 (other)
VL: DIQMTQSPSSLSASVGDRVTITCRASQSIYPFLEWYQQKPGKAPRLLIYFTSRLQSGVPSRFSGSGSGTDFTLTISSLQPEDFATYYCQQNATNPATFGQGTKVEIKR
B3: 1h-239-837 (other)
VL: DIQMTQSPSSLSASVGDRVTITCRASQSIYPFLEWYQQKPGKAPKLLIYFTSRLASGVPSRFSGSGSGTDFTLTISSLQPEDFATYYCLQNVTNPATFSQGTKVEIKR
B4: 1h-239-857 (other)
VL: DIQMTQSPSSLSASVGDRVTITCRASQSIYPFLEWYQQKPGKAPKLLIYFTSRLAAGVPSRFSGSGSGTDFTLTISSLQPEDFATYYCLQNVTNPAAFSQGTKVEIKR
B5: 1h-239-849 (other)
VL: DIQMTQSPSSLSASVGDRVTITCRASQSIYPFLEWYQQKPGKAPKLLIYFTSKLTRGVPSRFSGSGSGADFTLTISNLQPEDFATYYCLQNVTNPATFSQGTKVEIKR
B6: 1h-239-817 (other)
VL: DIQMTQSPSSLSASVGDRVTITCRASKPIYPFLEWYQQKPGKAPKLLIYFTSRLQSGVPSRFSGSGSGTDFTLTISSLQPEDFATYYCLQNVTNPATFSQGTKVEIKR
B7: 1h-239-809 (other)
VL: DIQMTQSPSSLSASVGDRVTITCRASRPIWPFLEWYQQKPGKAPKLLIYFTSRLQSGVPSRFSGSGSGTDFTLTISSLQPEDFATYYCLQNVTNPATFSQGTKVEIKR
B8: 1h-239-807 (other)
VL: DIQMTQSPSSLSASVGDRVTITCRASRAIWPFLEWYQQKPGKAPKLLIYFTSRLQSGVPSRFSGSGSGTDFTLTISSLQPEDFATYYCLQNVTNPATFSQGTKVEIKR
B9: 1h-239 (other)
VL: DIQMTQSPSSLSASVGDRVTITCRASQSIYPFLEWYQQKPGKAPKLLIYFTSRLQSGVPSRFSGSGSGTDFTLTISSLQPEDFATYYCQQNATNPATFGQGTKVEIKR
B10: 1h-239-828 (other)
VL: DIQMTQSPSSLSASVGDRVTITCRASQSIYPFLEWYQQKPGKAPKLLIYFTSRLREGVPSRFSGSGSGTDFTLTISSLQPEDFATYYCLQNVTNPATFSQGTKVEIKR
B11: 1h-239-840 (other)
VL: DIQMTQSPSSLSASVGDRVTITCRASQSIYPFLEWYQQKPGKAPKLLIYFASRLASGVPSRFSGSGSGTDFTLTISSLQPEDFATYYCLQNVTNPATFSQGTKVEIKR
B12: 1h-239-833 (other)
VL: DIQMTQSPSSLSASVGDRVTITCRASQSIYPFLEWYQQKPGKAPKLLIYFTSRLRAGVPSRFSGSGSGTDFTLTISSLQPEDFATYYCLQNVTNPATFSQGTKVEIKR
B13: 1h-239-859 (other)
VL: DIQMTQSPSSLSASVGDRVTITCRASQSIYPFLEWYQQKPGKAPKLLIYFSSMLASGVPSRFSGSGSGTDFTLTISSLQPEDFATYYCLQNVTNPATFSQGTKVEIKR
B14: 1h-239-824 (other)
VL: DIQMTQSPSSLSASVGDRVTITCRASQSIYPFLEWYQQKPGKAPKLLIYFTSRLRQGVPSRFSGSGSGTDFTLTISSLQPEDFATYYCLQNVTNPATFSQGTKVEIKR
B15: 1h-239-819 (other)
VL: DIQMTQSPSSLSASVGDRVTITCRASQAIWPFLEWYQQKPGKAPKLLIYFTSRLQSGVPSRFSGSGSGTDFTLTISSLQPEDFATYYCLQNVTNPATFSQGTKVEIKR
B16: 1h-239-829 (other)
VL: DIQMTQSPSSLSASVGDRVTITCRASQSIYPFLEWYQQKPGKAPKLLIYFSSRLASGVPSRFSGSGSGTDFTLTISSLQPEDFATYYCLQNVTNPATFSQGTKVEIKR
B17: 1h-239-838 (other)
VL: DIQMTQSPSSLSASVGDRVTITCQASQSIYPFLEWYQQKPGKAPKLLIYFTSRLARGVPSRFSGSGSGTDFTLTISSLQPEDFATYYCLQNVTNPATFSQGTRVEIKR
B18: 1h-239-856 (other)
VL: DIQMTQSPSSLSASVGDRVTITCRASQSIYPFLEWYQQKPGKAPKLLIYFTSRLRHGVPSRFSGSGSGTDFTLTISSLQPEDFATYYCLQNVTNPATFSQGTKVEIKR
B19: 1h-239-804 (other)
VL: DIQMTQSPSSLSASVGDRVTITCRASQSIYPFLEWYQQKPGKAPKLLIYFTSRLQSGVPSRFSGSGSGTDFTLTISSLQPEDFATYYCLQNVSMPATFSQGTKVEIKR
B20: 1h-239-816 (other)
VL: DIQMTQSPSSLSASVGDRVTITCRASRTIYPFLEWYQQKPGKAPKLLIYFTSRLQSGVPSRFSGSGSGTDFTLTISSLQPEDFATYYCLQNVTNPATFSQGTKVEIKR
B21: 1h-239-815 (other)
VL: DIQMTQSPSSLSASVGDRVTITCRASQPIWPFLEWYQQKPGKAPKLLIYFTSRLQSGVPSRFSGSGSGTDFTLTISSLQPEDFATYYCLQNVTNPATFSQGTKVEIKR
B22: 1h-239-851 (other)
VL: DIQMTQSPSSLSASVGDRVTITCRASRNIYPFLEWYQQKPGKAPKLLIYFTSRLQSGVPSRFSGSGSGTDFTLTISSLQPEDFATYYCLQNVTNPATFSQGTKVEIKR
B23: 1h-239-847 (other)
VL: DIQMTQSPSSLSASVGDRVTITCRASQSIYPFLEWYQQKPGKAPKLLIYFTSRLAYGVPSRFSGSGSGTDFTLTISSLQPEDFATYYCLQNVTNPATFSQGTKVEIRR
B24: 1h-239-832 (other)
VL: DIQMTQSPSSLSASVGDRVTITCRASQSIYPFLEWYQQKPGKAPKLLIYFTSYLREGVPSRFSGSGSGTDFTLTISSLQPEDFATYYCLQNVTNPATFSQGTKVEIKR
B25: 1h-109 (other)
VL: DIQMTQSPSSLSASVGDRVTITCRASQDIGASLLWYQQKPGKAPKLLIYFSSMLQSGVPSRFSGSGSGTDFTLTISSLQPEDFATYYCQQSGMRPFTFGQGTKVEIKR
B26: 1h-203 (other)
VL: DIQMTQSPSSLSASVGDRVTITCRASQPIGSVLAWYQQKPGKAPKLLIYFSSILQSGVPSRFSGSGSGTDFTLTISSLQPEDFATYYCQQALRSPFTFGQGTKVEIKR
B27: 1h-238 (other)
VL: DIQMTQSPSSLSASVGDRVTITCRASQHINASLGWYQQKPGKAPKLLIYWASQLQSGVPSRFSGSGSGTDFTLTISSLQPEDFATYYCQQMVRTPFTFGQGTKVEIKR
B28: 1h-207 (other)
VL: DIQMTQSPSSLSASVGDRVTITCRASQYIGTSLAWYQQKPGKAPKLLIYHSSGLQSGVPSRFSGSGSGTDFTLTISSLQPEDFATYYCQQTALRPFTFGQGTKVEIKR
B29: 1h-80 (other)
VL: DIQMTQSPSSLSASVGDRVTITCRASQRIGSNLAWYQQKPGKAPKLLIYWASLLQSGVPSRFSGSGSGTDFTLTISSLQPEDFATYYCQQTRSAPFTFGQGTKVEIKR
B30: 1h-108-5 (other)
VL: DIQITQSPSSLSASVGDRVTITCRASQYIGTALNWYQQKPGKAPELLIYRGSHLQSGVPSRFSGSGSGTDFTLTISSLQPEDFVTYYCQQIALTPYTFGQGTKVEIKR
B31: 1h-110 (other)
VL: DIQMTQSPSSLSASVGDRVTITCRASRDIGHMLNWYQQKPGKAPKLLIWFGSVLQSGVPSRFSGSGSGTDFTLTISSLQPEDFATYYCVQGRLRPPTFGQGTKVEIKR

Target: human CD28 (human, UniProt P10747 19-220)
Experiment: cell-based or functional assay

Binder	Luciferase assay (EC50) [nM]	MLR assay (EC50) [nM]
B1	775	850
B2	2500	2400
B3	9	14
B4	3	1
B5	13	10
B6	7	9
B7	6	4
B8	7	6
B9	1300	–
B10	8	14
B11	9	10
B12	8	7
B13	5	4
B14	9	6
B15	13	11
B16	10	11

Binder	Luciferase assay (EC50) [nM]	MLR assay (EC50) [nM]
B17	4	3
B18	3	1
B19	5	3
B20	11	13
B21	10	6
B22	5	4
B23	8	5
B24	12	11
B25	1000	–
B26	880	–
B27	775	–
B28	2600	–
B29	685	2000
B30	1900	–
B31	4100	–
